# Target: Gly4→Compound A mutant myoglobin (myoglobin containing β-O-GlcNAc-L-serine at position 4, C-terminal His6 tag) (UniProt P02185)
# Assay: ELISA-like assay: 200 ng myoglobin immobilized, biotinylated BSII, streptavidin-alkaline phosphatase, p-nitrophenyl phosphate, A405
# Chain of Gly4→Compound A mutant myoglobin (myoglobin containing β-O-GlcNAc-L-serine at position 4, C-terminal His6 tag) (P02185 other isoform, or with tags, fused parts or gaps mutant): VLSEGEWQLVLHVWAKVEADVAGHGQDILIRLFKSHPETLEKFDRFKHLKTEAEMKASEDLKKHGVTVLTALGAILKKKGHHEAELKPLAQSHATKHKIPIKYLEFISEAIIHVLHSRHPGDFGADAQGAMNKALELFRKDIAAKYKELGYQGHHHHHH
substance,measurement,value
"GlcNAc-specific lectin, Bandeiraea simplicifolia II (BSII), biotinylated",fold signal (A405) against wild-type myoglobin,> 200 fold

# Source: US20040138106A1
